# Target: the molecule itself
# Assay: cell-based or functional assay
Protein,"Recovery Time Crossover [s], 25 C [s]","Recovery Time Crossover [s], 37 C [s]","Strain crossover (G'' > G'), 25 C [% strain]","Strain crossover (G'' > G'), 37 C [% strain]"
T40A mutant (SEQ ID NO: 82) (designed binder) MRGSHHHHHHGSGRGDSGSGSGSGSGSGSGAPQMLRELQEANAALQDVRELLRQQVKEITFLKNTVMESDASGSGSGSGSGSVDGSPAGSPTSTEEGTSESATPESGPGTSTEPSEGSAPGSPAGSPTSTEEGTSTEPSEGSAPGTSTEPSEGSAPGTSESATPESGPGSEPATSGSETPGSEPATSGSETPGSPAGSPTSTEEGTSESATPESGPGTSTEPSEGSAPLESGSGSGSGSGSGAPQMLRELQEANAALQDVRELLRQQVKEITFLKNTVMESDASGSGSGSGSGSGSGRGDSHHHHHHKLN,4.51,4.58,127,143
T40A+Q54A mutant (SEQ ID NO: 84) (designed binder) MRGSHHHHHHGSGRGDSGSGSGSGSGSGSGAPQMLRELQEANAALQDVRELLRQAVKEITFLKNTVMESDASGSGSGSGSGSVDGSPAGSPTSTEEGTSESATPESGPGTSTEPSEGSAPGSPAGSPTSTEEGTSTEPSEGSAPGTSTEPSEGSAPGTSESATPESGPGSEPATSGSETPGSEPATSGSETPGSPAGSPTSTEEGTSESATPESGPGTSTEPSEGSAPLESGSGSGSGSGSGAPQMLRELQEANAALQDVRELLRQAVKEITFLKNTVMESDASGSGSGSGSGSGSGRGDSHHHHHHKLN,4.39,4.38,119,95
Q54A mutant (SEQ ID NO: 83) (designed binder) MRGSHHHHHHGSGRGDSGSGSGSGSGSGSGAPQMLRELQETNAALQDVRELLRQAVKEITFLKNTVMESDASGSGSGSGSGSVDGSPAGSPTSTEEGTSESATPESGPGTSTEPSEGSAPGSPAGSPTSTEEGTSTEPSEGSAPGTSTEPSEGSAPGTSESATPESGPGSEPATSGSETPGSEPATSGSETPGSPAGSPTSTEEGTSESATPESGPGTSTEPSEGSAPLESGSGSGSGSGSGAPQMLRELQETNAALQDVRELLRQAVKEITFLKNTVMESDASGSGSGSGSGSGSGRGDSHHHHHHKLN,4.45,4.39,116,132
PXP (SEQ ID NO: 81) (designed binder) MRGSHHHHHHGSGRGDSVDGSGSGSGSGSGSGAPQMLRELQETNAALQDVRELLRQQVKEITFLKNTVMESDASGSGSGSGSGSGSLDGSPAGSPTSTEEGTSESATPESGPGTSTEPSEGSAPGSPAGSPTSTEEGTSTEPSEGSAPGTSTEPSEGSAPGTSESATPESGPGSEPATSGSETPGSEPATSGSETPGSPAGSPTSTEEGTSESATPESGPGTSTEPSEGSAPLDGSGSGSGSGSGSGAPQMLRELQETNAALQDVRELLRQQVKEITFLKNTVMESDASGSGSGSGSGSGSLEGRGDSHHHHHHKLN,4.79,7.91,161,151

# Source: patent publication US20260151539A1 (University of Washington, published 2026)
